Laboratory results reported in patent EP4796128A1, “ANTI-C-MET ANTIBODY-DRUG CONJUGATE COMPRISING CAMPTOTHECIN DERIVATIVE” (Celltrion, Inc., priority 2023, dated 2025).
Where two headings read alike, the source gives them in different places. Non-standard residues stand in square brackets, D forms with d. Residues, ends and D or L forms follow the SMILES beside them. *: point of attachment. Dolaproine = CO[C@@H]([C@@H]1CCCN1)[C@@H](C)C(=O)O; Dil = CC[C@H](C)[C@H](NC)[C@@H](CC(=O)O)OC; X1 = C[C@@H](N*)[C@@H](O)c1ccccc1; NMeV = CN[C@H](C(=O)O)C(C)C

What was measured:
NCI-H1573 = test: In-vitro cell viability assay (CellTiter-Glo); type: cell-based; conditions: Homo sapiens
HT29 = test: In-vitro cell viability assay (CellTiter-Glo); type: cell-based; conditions: Homo sapiens, HT-29, 144 h
NCI-H1975 = test: In-vitro cell viability assay (CellTiter-Glo); type: cell-based; conditions: Homo sapiens
SNU-5 = test: In-vitro cell viability assay (CellTiter-Glo); type: cell-based; conditions: Homo sapiens
T47D = test: cells; type: cell-based; conditions: Homo sapiens, 144 h
[1] = tested on: NCI-H441 human lung cancer xenograft; test: NCI-H441 human lung cancer xenograft model; type: in vivo, BALB/c nude mice; conditions: 3 mg/kg i.v. QW × 2 weeks
Procedure: NCI-H441 tumor cells (ATCC, Catalog No. HTB-174) were maintained in vitro in RPMI 1640 medium supplemented with 10% FBS and 1% antibiotic-antimycotic at 37°C and 5% CO2 in air. Tumor cells NCI-H441 were routinely passaged twice a week by treatment with trypsin-EDTA. The cells with exponential growth were harvested and counted for tumor inoculation.
Mice were randomly assigned to groups of 10 each, and tumor cells were inoculated into the mice according to the experimental conditions shown in Table 19 below. Specifically, NCI-H441 tumor cells (5 × 10^6 cells/mouse) were subcutaneously inoculated into the right flank of each mouse together with 0.2 mL of PBS containing Matrigel (1:1). Treatment was started on day 14 after inoculation, when the mean tumor volume reached 180 mm^3, and the treatment start date was set as day 0. This experiment was performed for 35 days.
Statistical analysis was performed on the data obtained 35 days after the start of the experiment to determine differences in tumor volume and tumor weight between groups. […] All data were analyzed using SPSS 29.0. p < 0.05 was considered statistically significant.

[2] = molecular target: T1, monkey c-Met (cynomolgus c-Met) (monkey (cynomolgus), UniProt A0A2K5UM36 25-932); test: BLI, antibody as loading sample, monkey c-Met
T1 construct: Recombinant protein used in ELISA and BLI; also called monkey-derived c-MET protein; recombinant monkey c-Met

[3] = molecular target: T1, monkey c-Met (cynomolgus c-Met); test: ELISA on monkey (cynomolgus) c-Met
recombinant human c-Met [4] = molecular target: T2, recombinant human c-Met (human, UniProt P08581 25-932); test: ELISA on recombinant human c-Met
T2 construct: Recombinant protein used in ELISA and BLI; also called human c-MET protein; human-derived c-Met protein

recombinant human c-Met [5] = molecular target: T2, recombinant human c-Met; test: BLI, antibody as loading sample, human c-Met
c-Met derived from rats = molecular target: T3, c-Met derived from rats (rats, UniProt P97523 25-935, limits assumed); test: ELISA, cross-reactivity test with diluted M01
T3 construct: Antigen of the cross-reactivity ELISA; also called rat c-Met

c-Met derived from mice = molecular target: T4, c-Met derived from mice (mice, UniProt P16056 25-931, limits assumed); test: ELISA, cross-reactivity test with diluted M01
T4 construct: Antigen of the cross-reactivity ELISA; also called mouse c-Met

c-Met derived from dogs = molecular target: T5, c-Met derived from dogs (dogs, UniProt Q75ZY9 25-935, limits assumed); test: ELISA, cross-reactivity test with diluted M01
T5 construct: Antigen of the cross-reactivity ELISA; also called dog c-Met
T5 sequence (Q75ZY9 25-935 limits assumed): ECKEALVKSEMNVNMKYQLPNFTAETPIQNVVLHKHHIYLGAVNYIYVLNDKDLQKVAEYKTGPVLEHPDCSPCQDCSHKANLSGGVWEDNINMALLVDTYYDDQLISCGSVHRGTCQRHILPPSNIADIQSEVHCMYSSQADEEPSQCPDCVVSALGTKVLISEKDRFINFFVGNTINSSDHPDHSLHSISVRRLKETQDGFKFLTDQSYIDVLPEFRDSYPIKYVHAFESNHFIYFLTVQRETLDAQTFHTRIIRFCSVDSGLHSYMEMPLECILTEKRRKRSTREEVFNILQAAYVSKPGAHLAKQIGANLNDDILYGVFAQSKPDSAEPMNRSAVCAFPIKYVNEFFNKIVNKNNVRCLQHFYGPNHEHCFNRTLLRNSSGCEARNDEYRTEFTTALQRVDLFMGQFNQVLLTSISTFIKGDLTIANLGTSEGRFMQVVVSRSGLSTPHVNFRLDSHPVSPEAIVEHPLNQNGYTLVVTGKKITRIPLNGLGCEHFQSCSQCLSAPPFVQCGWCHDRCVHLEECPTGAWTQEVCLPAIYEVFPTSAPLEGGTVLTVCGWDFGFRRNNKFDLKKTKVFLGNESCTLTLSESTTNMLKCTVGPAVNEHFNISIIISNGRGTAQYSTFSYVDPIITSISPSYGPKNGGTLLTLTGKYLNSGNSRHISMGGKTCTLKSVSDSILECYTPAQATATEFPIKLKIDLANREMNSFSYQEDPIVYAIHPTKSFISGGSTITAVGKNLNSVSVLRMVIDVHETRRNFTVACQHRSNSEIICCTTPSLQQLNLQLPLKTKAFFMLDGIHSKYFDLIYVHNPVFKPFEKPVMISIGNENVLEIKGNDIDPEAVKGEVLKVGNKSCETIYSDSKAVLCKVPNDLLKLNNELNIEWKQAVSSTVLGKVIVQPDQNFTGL

T1 sequence (A0A2K5UM36 entry or part of it limits assumed, form in doubt): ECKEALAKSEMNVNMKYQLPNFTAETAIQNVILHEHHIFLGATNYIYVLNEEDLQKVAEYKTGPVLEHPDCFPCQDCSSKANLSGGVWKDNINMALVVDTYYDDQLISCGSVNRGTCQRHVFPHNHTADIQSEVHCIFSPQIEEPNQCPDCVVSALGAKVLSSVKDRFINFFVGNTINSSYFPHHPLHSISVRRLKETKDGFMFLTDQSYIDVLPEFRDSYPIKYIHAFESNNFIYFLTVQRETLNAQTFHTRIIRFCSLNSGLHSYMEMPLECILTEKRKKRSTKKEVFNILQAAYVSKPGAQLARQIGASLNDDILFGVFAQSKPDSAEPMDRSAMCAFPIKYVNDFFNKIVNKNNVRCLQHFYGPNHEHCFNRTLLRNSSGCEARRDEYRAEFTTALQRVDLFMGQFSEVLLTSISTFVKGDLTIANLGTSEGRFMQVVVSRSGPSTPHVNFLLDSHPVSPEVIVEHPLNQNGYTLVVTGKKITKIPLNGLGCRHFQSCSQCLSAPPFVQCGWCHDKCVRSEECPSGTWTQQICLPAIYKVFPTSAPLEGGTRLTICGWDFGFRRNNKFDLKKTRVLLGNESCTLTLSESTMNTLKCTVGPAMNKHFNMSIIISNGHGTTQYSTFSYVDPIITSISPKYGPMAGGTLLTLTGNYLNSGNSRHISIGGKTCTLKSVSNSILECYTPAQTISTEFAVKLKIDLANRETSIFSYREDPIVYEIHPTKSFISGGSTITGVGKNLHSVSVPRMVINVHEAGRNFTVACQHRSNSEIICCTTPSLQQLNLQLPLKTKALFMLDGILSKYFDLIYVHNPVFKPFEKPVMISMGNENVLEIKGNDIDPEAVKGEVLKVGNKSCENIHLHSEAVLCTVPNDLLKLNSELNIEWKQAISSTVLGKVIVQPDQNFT
T2 sequence (P08581 25-932 limits assumed): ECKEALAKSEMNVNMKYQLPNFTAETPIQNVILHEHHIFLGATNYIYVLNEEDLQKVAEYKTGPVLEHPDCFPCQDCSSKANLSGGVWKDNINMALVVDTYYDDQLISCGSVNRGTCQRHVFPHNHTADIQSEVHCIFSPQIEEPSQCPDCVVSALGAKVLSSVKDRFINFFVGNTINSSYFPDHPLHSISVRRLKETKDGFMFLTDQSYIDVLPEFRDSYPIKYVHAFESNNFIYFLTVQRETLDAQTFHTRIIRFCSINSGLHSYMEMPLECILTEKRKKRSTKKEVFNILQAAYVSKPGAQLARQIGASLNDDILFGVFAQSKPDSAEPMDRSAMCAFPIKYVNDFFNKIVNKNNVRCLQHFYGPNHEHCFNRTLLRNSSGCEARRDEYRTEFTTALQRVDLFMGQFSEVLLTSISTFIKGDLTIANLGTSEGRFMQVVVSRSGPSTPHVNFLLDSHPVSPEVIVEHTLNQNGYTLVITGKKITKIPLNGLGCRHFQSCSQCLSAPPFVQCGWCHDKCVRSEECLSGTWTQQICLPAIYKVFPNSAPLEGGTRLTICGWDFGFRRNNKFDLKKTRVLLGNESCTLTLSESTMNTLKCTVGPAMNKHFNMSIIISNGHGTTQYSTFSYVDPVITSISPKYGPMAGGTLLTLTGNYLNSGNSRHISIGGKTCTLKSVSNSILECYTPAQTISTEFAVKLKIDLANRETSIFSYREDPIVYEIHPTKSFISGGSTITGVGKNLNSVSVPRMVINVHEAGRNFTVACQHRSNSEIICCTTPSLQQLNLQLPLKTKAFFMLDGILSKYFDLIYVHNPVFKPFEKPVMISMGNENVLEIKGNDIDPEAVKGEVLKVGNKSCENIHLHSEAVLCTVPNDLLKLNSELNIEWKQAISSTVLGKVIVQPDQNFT
T3 sequence (P97523 25-935 limits assumed): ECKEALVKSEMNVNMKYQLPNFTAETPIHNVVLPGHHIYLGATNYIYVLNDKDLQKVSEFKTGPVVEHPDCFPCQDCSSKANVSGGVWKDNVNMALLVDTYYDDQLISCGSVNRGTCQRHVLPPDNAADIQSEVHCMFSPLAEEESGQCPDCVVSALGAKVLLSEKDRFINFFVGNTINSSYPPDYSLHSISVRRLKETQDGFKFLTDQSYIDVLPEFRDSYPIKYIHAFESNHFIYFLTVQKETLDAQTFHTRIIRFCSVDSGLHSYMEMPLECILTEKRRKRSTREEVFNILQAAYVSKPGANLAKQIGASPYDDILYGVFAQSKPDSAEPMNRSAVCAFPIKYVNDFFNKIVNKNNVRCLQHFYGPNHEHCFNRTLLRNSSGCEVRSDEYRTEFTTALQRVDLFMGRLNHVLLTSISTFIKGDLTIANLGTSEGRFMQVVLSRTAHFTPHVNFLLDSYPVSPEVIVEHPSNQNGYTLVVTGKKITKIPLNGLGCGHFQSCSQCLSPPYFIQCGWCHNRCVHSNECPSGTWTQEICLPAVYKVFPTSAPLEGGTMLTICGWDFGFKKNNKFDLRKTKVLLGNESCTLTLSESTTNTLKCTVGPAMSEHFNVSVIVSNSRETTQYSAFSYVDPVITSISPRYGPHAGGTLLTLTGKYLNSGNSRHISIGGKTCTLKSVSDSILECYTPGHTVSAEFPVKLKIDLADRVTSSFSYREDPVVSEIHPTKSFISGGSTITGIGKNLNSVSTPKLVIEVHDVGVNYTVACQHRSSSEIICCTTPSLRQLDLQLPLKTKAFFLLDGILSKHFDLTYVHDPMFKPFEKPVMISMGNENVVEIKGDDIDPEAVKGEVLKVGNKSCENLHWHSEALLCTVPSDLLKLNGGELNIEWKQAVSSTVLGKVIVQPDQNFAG
T4 sequence (P16056 25-931 limits assumed): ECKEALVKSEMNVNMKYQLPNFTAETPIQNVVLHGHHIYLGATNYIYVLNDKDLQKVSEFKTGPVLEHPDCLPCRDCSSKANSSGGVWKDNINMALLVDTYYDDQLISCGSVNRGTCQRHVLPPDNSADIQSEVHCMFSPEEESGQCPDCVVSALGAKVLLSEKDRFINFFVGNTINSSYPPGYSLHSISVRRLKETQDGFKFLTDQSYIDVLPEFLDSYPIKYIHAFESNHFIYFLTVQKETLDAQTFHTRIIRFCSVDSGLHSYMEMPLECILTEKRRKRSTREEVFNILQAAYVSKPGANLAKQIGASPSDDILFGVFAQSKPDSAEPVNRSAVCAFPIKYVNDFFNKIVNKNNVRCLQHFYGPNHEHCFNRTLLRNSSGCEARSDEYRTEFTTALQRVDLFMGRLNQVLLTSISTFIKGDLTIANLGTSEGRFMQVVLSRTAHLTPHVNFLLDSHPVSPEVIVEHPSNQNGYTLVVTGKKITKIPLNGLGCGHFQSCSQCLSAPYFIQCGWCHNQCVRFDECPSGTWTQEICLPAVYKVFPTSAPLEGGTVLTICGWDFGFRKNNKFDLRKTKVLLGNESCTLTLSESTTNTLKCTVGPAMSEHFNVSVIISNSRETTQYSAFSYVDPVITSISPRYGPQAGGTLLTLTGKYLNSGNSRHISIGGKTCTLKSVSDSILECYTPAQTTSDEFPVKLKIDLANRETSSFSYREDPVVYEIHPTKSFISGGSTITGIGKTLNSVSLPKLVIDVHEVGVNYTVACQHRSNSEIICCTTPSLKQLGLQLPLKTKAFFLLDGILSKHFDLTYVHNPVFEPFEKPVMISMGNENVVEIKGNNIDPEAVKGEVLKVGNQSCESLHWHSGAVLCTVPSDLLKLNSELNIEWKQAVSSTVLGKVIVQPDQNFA

Molecule: CC[C@H](C)[C@@H]([C@@H](CC(=O)N1CCC[C@H]1[C@H](OC)[C@@H](C)C(=O)N[C@H](C)[C@@H](O)c1ccccc1)OC)N(C)C(=O)[C@@H](NC(=O)[C@@H](NC)C(C)C)C(C)C [MMAE, monomethyl auristatin E, reference compound] (H-[NMeV]V[Dil][Dolaproine]-X1)
- IC50 (NCI-H1573; 144 h, NCI-H1573, 6 days incubation, read-out: IC50): 0.42 nM
- IC50 (HT29; HT29, 6 days incubation, read-out: IC50): 0.14 nM
- IC50 (NCI-H1975; 144 h, NCI-H1975, 6 days incubation, read-out: IC50): 0.3 nM
- IC50 (SNU-5; 144 h, SNU-5, 6 days incubation, read-out: IC50): 0.42 nM
- IC50 (T47D; 6 days incubation, read-out: IC50): 0.51 nM

Molecule: CC[C@@]1(O)C(=O)OCc2c1cc1n(c2=O)Cc2c-1nc1cc3c(c4c1c2[C@@H](NC(=O)[C@@H](C)O)CC4)OCO3 [PBX-7016]
- IC50 (NCI-H1573; NCI-H1573, 144 h): 2.55 nM
- IC50 (HT29): 3.8 nM
- IC50 (NCI-H1975; NCI-H1975, 144 h): 9.8 nM
- IC50 (SNU-5; SNU-5, 144 h): 5.21 nM
- IC50 (T47D): 0.45 nM

B1: P23-MMAE: isotype ADC: anti-influenza A antibody (Navivumab, P23) with monomethyl auristatin E payload; DAR 3.1 (conjugate, chains of the INN, looked up)
VH: QVQLVQSGAEVKKPGASVKVSCKTSGYSFSTYGVSWVRQAPGQGPEWVGWISAYTGITDYAQKFQGRVTLTTDATTATAFLDLRSLRPDDTATYFCARDKVQGRVEVGSGGRHDYWGQGTLVIVSS
VL: EVVLTQSPGTLALPPGERATLSCRASHRVGSTYIAWYQQKSGQAPRRLIYGASNRATDIPDRFSGSGSGTDFTLTIRRLEPEDSAVYYCQQFSVSPWTFGQGTRVEIK
modifications: MMAE payload, DAR 3.1
- Tumor Volume ([1]; Day 0, mean ± SEM): 180 ± 13 mm^3
- Tumor Volume ([1]; Day 4, mean ± SEM): 208 ± 19 mm^3
- Tumor Volume ([1]; Day 7, mean ± SEM): 244 ± 26 mm^3
- Tumor Volume ([1]; Day 11, mean ± SEM): 283 ± 36 mm^3
- Tumor Volume ([1]; Day 14, mean ± SEM): 287 ± 39 mm^3
- Tumor Volume ([1]; Day 18, mean ± SEM): 358 ± 66 mm^3
- Tumor Volume ([1]; Day 21, mean ± SEM): 396 ± 71 mm^3
- Tumor Volume ([1]; Day 25, mean ± SEM): 563 ± 93 mm^3
- Tumor Volume ([1]; Day 28, mean ± SEM): 708 ± 119 mm^3
- Tumor Volume ([1]; Day 32, mean ± SEM): 977 ± 193 mm^3
- TGI ([1]; Day 35): 26.27%
- Tumor Weight on Day 35 ([1]; Day 35): 1.342 ± 0.247 g
- T/C ([1]; Day 35, tumor volume vs P23 isotype mAb group): 76.70%
- T/Cweight ([1]; Day 35, tumor weight vs P23 isotype mAb group): 80.39%

B2: anti-c-Met antibody (M01) (antibody, human IgG1, kappa, V domains shown)
VH: QVQLVQSGAEVKKPGASVKVSCKASGYIFTAYTMHWVRQAPGQGLEWMGWIKPNNGLANYAQKFQGRVTMTRDTSISTAYMELSRLRSDDTAVYYCARSEITTEFDYWGQGTLVTVSS
VL: DIVMTQSPDSLAVSLGERATINCKSSESVDSYANSFLHWYQQKPGQPPKLLIYRASTRESGVPDRFSGSGSGTDFTLTISSLQAEDVAVYYCQQSKEDPLTFGGGTKVEIKR
notes: Naked antibody; also called M01 antibody; M01 (Anti-cMet mAb)
- Kd [2]: 0.707 nM
- koff [2]: 5.69e-05 s⁻¹
- kon [2]: 80500 M⁻¹ s⁻¹
- EC50 [3]: 0.14 nM
- EC50 (recombinant human c-Met [4]): 0.14 nM
- Kd (recombinant human c-Met [5]): 0.605 nM
- koff (recombinant human c-Met [5]): 4.07e-05 s⁻¹
- kon (recombinant human c-Met [5]): 67400 M⁻¹ s⁻¹
- binding result (c-Met derived from rats): no binding
- binding result (c-Met derived from mice): no binding
- binding result (c-Met derived from dogs): no binding
